Measurements as given in patent US20220220218A1 (JIANGSU HENGRUI MEDICINE, published 2022).
Numbering of substitutions follows the chain as printed.

T1: cynomolgus monkey CD73/NT5E protein (His tag), Sino Biological Cat. No. 90192-C08H (cynomolgus monkey, UniProt A0A2K5V5U7 27-547)
T1 construct: also called cynomolgus monkey CD73 protein; cynoCD73; not shown: His tag
T1 sequence: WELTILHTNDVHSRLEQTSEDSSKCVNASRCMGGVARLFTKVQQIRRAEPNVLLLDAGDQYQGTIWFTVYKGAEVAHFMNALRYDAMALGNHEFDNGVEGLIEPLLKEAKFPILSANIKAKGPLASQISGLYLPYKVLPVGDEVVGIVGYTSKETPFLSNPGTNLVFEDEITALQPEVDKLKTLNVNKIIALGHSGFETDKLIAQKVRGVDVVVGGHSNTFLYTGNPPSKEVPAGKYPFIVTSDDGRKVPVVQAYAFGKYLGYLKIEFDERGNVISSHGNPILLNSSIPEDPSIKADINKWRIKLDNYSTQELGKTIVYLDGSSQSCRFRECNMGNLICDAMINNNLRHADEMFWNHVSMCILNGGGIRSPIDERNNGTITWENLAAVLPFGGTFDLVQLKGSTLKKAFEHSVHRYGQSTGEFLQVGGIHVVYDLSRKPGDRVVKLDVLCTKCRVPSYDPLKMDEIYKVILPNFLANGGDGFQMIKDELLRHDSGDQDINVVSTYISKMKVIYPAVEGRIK

B1: Hab110.21 (antibody, human IgG1, kappa, V domains shown)
VH: EVQLVQSGAEVKKPGASVKVSCKASGYTFTSYTMHWVRQAPGQRLEWMGYINPNSFYIEYNQKFKDRVTITRDTSASTAYMELSSLRSEDTAVYYCARGDYDLFYDMDNWGQGTTVTVSS
VL: DIQMTQSPSSLSASVGDRVTITCRASQDIGNSLNWLQQKPGKAIKRLIYATFRLDSGVPSRFSGSRSGTEYTLTISSLQPEDFATYYCQQYASFPWTFGGGTKVEIKR
notes: also called humanized antibody of mab110
B2: Hab127.31d (antibody, human IgG1, kappa, V domains shown)
VH: EVQLVQSGAEVKKPGASVKVSCKASGYTFTAYFMNWVRQAPGQGLEWMGRIYHNKGDTFYSQKFKGRVTMTVDKSTSTVYMELSSLRSEDTAVYYCATSYVGDWGQGTTVTVSS
VL: B1 VL with N31D, K42G, I44L, F52S, R53S, R66G, Q89L
notes: also called humanized antibody of mab127
B3: Hab108.64 (antibody, human IgG1, kappa, V domains shown)
VH: EVTLKQSGPGLVKPTETLTLTCTVSGFSLSSYGIQWVRQPPGKGLEWLGVIWSGGSADYNAAFISRLTISKDTSKSQVVLTMTNMDPVDTATYYCAGQYGSVWGQGTLVTVSS
VL: DIQMTQSPSSLSASVGDRVTITCRASQDIGDRLNWLQQKPGGAIKRLIYATSSLDSGVPKRFSGSGSGTEYTLTISSLQPEDFATYYCLQYAGSWTFGGGTKVEIKR
notes: also called humanized antibody of mab108

The binders below were run against T1, cynomolgus monkey CD73/NT5E protein … (assay: ELISA; cynomolgus monkey CD73 coated on plate).
Experimental: The cross-binding activity of anti-CD73 antibodies to cynomolgus monkey CD73 protein was tested by ELISA assay. The cynomolgus monkey CD73 fusion protein was directly coated onto a 96-well microtiter plate. The signal strength after the addition of the antibody was used to determine the binding activity of the antibody to cynomolgus monkey CD73. The specific experimental procedures were as follows:
Cynomolgus monkey CD73 (Sino Biological, Cat No. 90192-C08H) was diluted with PBS, pH7.4 (Shanghai BasalMedia, Cat No. B320) buffer to a concentration of 2 μg/ml, was added into the 96-well microtiter plate at 50 μl/well, and was incubated in an incubator at 37° C. for 2 hours. The liquid was discarded, 250 μl/well blocking solution (5% skim milk diluted in PBS) was added, and incubated in an incubator at 37° C. for 3 hours or at 4° C. overnight (16-18 hours) for blocking. After the blocking was finished, the blocking solution was discarded, the plate was washed for 5 times with PBST buffer, 50 μl/well of various concentrations of each of the test antibodies (purified hybridoma antibodies or humanized antibodies, diluted with sample diluent) were added, and incubated in an incubator at 37° C. for 1 hour. After the incubation was finished, the plate was washed for 5 times with PBST, 50 μl/well of HRP-labeled goat anti-mouse secondary antibody (Jackson Immuno Research, Cat No. 115-035-003) or goat anti-human secondary antibody (Jackson Immuno Research, Cat No. 109-035-003) diluted with sample diluent was added, and incubated at 37° C. for 1 hour. The plate was washed for 5 times with PBST, 50 μl/well of TMB chromogenic substrate (KPL, Cat No. 52-00-03) was added, incubated at room temperature for 5-10 min, and 50 μl/well of 1M H₂SO₄ was added to stop the reaction. The absorbance value was read by a microplate reader (Molecular Devices, VERSA max) at a wavelength of 450 nm, and the data was analyzed with GraphPad Prism 5. The binding of anti-CD73 antibody to monkey CD73 was calculated as EC50 value.

Which EC50 does the source give for B1 here?
The EC50 was 0.064 nM.

How did the EC50 turn out when B2 was run?
The EC50 was 0.033 nM.

With B3 as the binder, how does the EC50 read?
Its EC50 is 0.033 nM.
